A short description of this data set: Drug-release assay of nanoparticle-conjugated linker-payloads under cleavage conditions (Cat-B, redox-responsive or pH-sensitive cleaving study), RP-HPLC. It is filed as in vitro ADME. The note with it: linker-payload conjugated to DBCO-functionalized silica nanoparticle, 37° C., 24 hours. As for the experimental part:
To assess the drug releasing profile of exemplary linker-drug conjugates, the linker-drug conjugates were each conjugated to a DBCO-functionalized ultrasmall silica nanoparticle via a click chemistry reaction between the azide groups on the linker-drug conjugate precursors and the dibenzocyclooctyne (DBCO) groups of the nanoparticles. The resulting drug-nanoparticle-conjugates were then incubated under the desired releasing conditions for release kinetics tests.
The amount of released drugs vs non-released drugs was measured using reverse phase HPLC by analyzing the area under curve (AUC) (FIG. 10A and FIG. 10B).
General Method: A Waters Xbridge Peptide BEH C18 column with 4.6 mm×50 mm dimensions, a particle size of 5 μm, and a pore size of 300 A was used (part number 186003622). Acetonitrile (VWR HiPerSolv Chromanorm, UHPLC Grade) was used as received without further preparation, […] trifluoroacetic acid in deionized water was prepared by adding 1 mL of trifluoroacetic acid (HPLC grade, Millipore-Sigma) into 999 mL 18.2 MΩ·cm deionized water that was generated using an IQ7000 Millipore deionized water system and passed through a 0.2 μm filter before use. The seal wash used for the system was composed of 90% 18.2 MΩ·cm deionized water and 10% methanol (HPLC grade, VWR). The injection needle was washed using a mixture of 25 vol % 18.2 MΩ·cm deionized water, 25 vol % acetonitrile, 25 vol % methanol, and 25 vol % 2-propanol. Samples were prepared in a concentration range of 0.25 to 2 μM and the injection volume ranges from 60 μL to 10 μL, respectively. Higher sample concentration can be used if detector signal is low. Vials used for all injections are fresh Waters Total Recovery vials with screw caps that have pre-slit PTFE septa (part number 186000385C).
Method for Protease-cleavable and Redox-responsive Linkers: Before any sample injections were started, the PDA lamp was turned on and allowed to warm up for at least 30 minutes. The system and column were equilibrated with 95% 0.01% TFA in deionized water, 5% acetonitrile for at least 10 minutes at a flow rate of 1.0 mL/min after the PDA lamp had warmed up. Two blank injections, with injection volumes of 10 μL containing only 18.2 MΩ·cm deionized water, were performed before the injection of any samples for analysis. The gradient used to elute protease-cleavable and redox-sensitive linkers conjugated to hybrid silica nanoparticles, and their components began at 95% 0.01% TFA in deionized water and 5% acetonitrile and linearly changed to 15% 0.01% TFA in deionized water, 85% acetonitrile over 8 minutes. Acetonitrile composition was increased to 95% over an additional minute and held at 95% for an additional 2 minutes to ensure that any strongly retained compounds are eluted. The composition of the solvent was then changed back to the starting composition of the gradient over an additional minute and allowed to equilibrate for 3 minutes before another injection began. Between sample injections a blank injection was run to ensure that no carryover occurred.
Method for pH-sensitive Linkers: Before any sample injections were started, the PDA lamp was turned on and allowed to warm up for at least 30 minutes. A gradient of pure deionized water and acetonitrile was used, all other consumables including column and vials were the same as for the method to purify Cat-B sensitive and redox-responsive linkers elaborated on above. Briefly the gradient composition began at 95% deionized water and 5% acetonitrile at a flow rate of 1.0 mL/min (not changed throughout the method). The composition was changed from this starting composition to 15% deionized water and 85% acetonitrile over a 12-minute period, during which the retained drug-linkers, released drug, free drug linker, and any other impurities eluted. At the 12-minute mark the composition was rapidly changed to 5% deionized water and 95% acetonitrile over the course of one minute. […]

10 molecules from patent publication US20230241243A1, “CARRIER PARTICLE-DRUG CONJUGATES, SELF-IMMOLATIVE LINKERS, AND USES THEREOF” (priority 2020, published 2023) can be followed below.

As to `CCc1c2c(nc3ccc(OCCCNC(=O)OCc4ccc(NC(=O)[C@H](CCCCN)NC(=O)[C@@H](NC(=O)CCOCCOCCOCCOCCOCCOCCOCCOCCOCCN=[N+]=[N-])C(C)C)cc4)cc13)-c1cc3c(c(=O)n1C2)COC(=O)[C@]3(O)CC` [Example 31, 4-((32S,35S)-35-(4-aminobutyl)-1-azido-32-isopropyl-30,33-dioxo-3,6,9,12,15,18,21,24,27-nonaoxa-31,34-diazahexatriacontan-36-amido)benzyl (3-(((S)-4,11-diethyl-4-hydroxy-3,14-dioxo-3,4,12,14-tetrahydro-1H-pyrano[3′,4′:6,7]indolizino[1,2-b]quinolin-9-yl)oxy)propyl)carbamate], the “% of Payload Release in 24 Hours Under Cleavage Conditions” value (“% of Payload Release” for short) is recorded as “+ (‘+’ indicates 5-25% release)”. Take `CCc1c2c(nc3ccc(OC(C(=O)OC)c4ccc(NC(=O)[C@H](CCCNC(N)=O)NC(=O)[C@@H](NC(=O)CCOCCOCCOCCOCCOCCN=[N+]=[N-])C(C)C)cc4)cc13)-c1cc3c(c(=O)n1C2)COC(=O)[C@]3(O)CC` (stereo partly drawn) [Example 12, methyl 2-(4-((20S,23S)-1-azido-20-isopropyl-18,21-dioxo-23-(3-ureidopropyl)-3,6,9,12,15-pentaoxa-19,22-diazatetracosan-24-amido)phenyl)-2-(((S)-4,11-diethyl-4-hydroxy-3,14-dioxo-3,4,12,14-tetrahydro-1H-pyrano[3′,4′:6,7]indolizino[1,2-b]quinolin-9-yl)oxy)acetate]: the “% of Payload Release” value is recorded as “+ (‘+’ indicates 5-25% release)”. In the case of `CCc1c2c(nc3ccc(OCCCNC(=O)OCc4ccc(NC(=O)[C@H](CCCNC(N)=O)NC(=O)[C@@H](NC(=O)CCOCCOCCOCCOCCOCCN=[N+]=[N-])C(C)C)cc4)cc13)-c1cc3c(c(=O)n1C2)COC(=O)[C@]3(O)CC` [Example 15, 4-((20S,23S)-1-azido-20-isopropyl-18,21-dioxo-23-(3-ureidopropyl)-3,6,9,12,15-pentaoxa-19,22-diazatetracosan-24-amido)benzyl (3-(((S)-4,11-diethyl-4-hydroxy-3,14-dioxo-3,4,12,14-tetrahydro-1H-pyrano[3′,4′:6,7]indolizino[1,2-b]quinolin-9-yl)oxy)propyl)carbamate], the “% of Payload Release” value is “++ (‘++’ indicates 26-50% release)”.

In the case of `CC[C@@]1(O)C(=O)OCc2c1cc1n(c2=O)Cc2c-1nc1cc(F)c(C)c3c1c2[C@@H](NC(=O)C(O)c1ccc(NC(=O)[C@H](CCCCN)NC(=O)[C@H](Cc2ccccc2)NC(=O)CCOCCOCCOCCOCCOCCOCCN=[N+]=[N-])cc1)CC3` (single isomer, unassigned) [Example 29-Peak 2], the “% of Payload Release” value is recorded as “++ (‘++’ indicates 26-50% release)”. In the case of `CC[C@@]1(O)C(=O)OCc2c1cc1n(c2=O)Cc2c-1nc1cc(F)c(C)c3c1c2[C@@H](NC(=O)OCc1ccc(NC(=O)[C@H](CCCNC(N)=O)NC(=O)[C@@H](NC(=O)CCOCCOCCOCCOCCOCCOCCOCCOCCOCCOCCOCCN=[N+]=[N-])C(C)C)cc1)CC3` [Example 11, 4-((38S,41S)-1-azido-38-isopropyl-36,39-dioxo-41-(3-ureidopropyl)-3,6,9,12,15,18,21,24,27,30,33-undecaoxa-37,40-diazadotetracontan-42-amido)benzyl ((1S,9S)-9-ethyl-5-fluoro-9-hydroxy-4-methyl-10,13-dioxo-2,3,9,10,13,15-hexahydro-1H,12H-benzo[de]pyrano[3′,4′:6,7]indolizino[1,2-b]quinolin-1-yl)carbamate] it was “+++ (‘+++’ indicates 51-75% release)”; in that of `CC[C@@]1(O)C(=O)OCc2c1cc1n(c2=O)Cc2c-1nc1cc(F)c(C)c3c1c2[C@@H](NC(=O)C(O)c1ccc(NC(=O)[C@H](CCCCN)NC(=O)[C@H](Cc2ccccc2)NC(=O)CCOCCOCCOCCOCCOCCOCCN=[N+]=[N-])cc1)CC3` (single isomer, unassigned) [Example 29-Peak 1], “+++ (‘+++’ indicates 51-75% release)”.

In the case of `CCc1c2c(nc3ccc(OCCCNC(=O)OCCSSCCNC(=O)CCOCCOCCOCCOCCOCCOCCOCCOCCOCCN=[N+]=[N-])cc13)-c1cc3c(c(=O)n1C2)COC(=O)[C@]3(O)CC` [Example 61, 37-Azido-8-oxo-11,14,17,20,23,26,29,32,35-nonaoxa-3,4-dithia-7-azaheptatriacontyl (S)-(3-((4,11-diethyl-4-hydroxy-3,14-dioxo-3,4,12,14-tetrahydro-1H-pyrano[3′,4′:6,7]indolizino[1,2-b]quinolin-9-yl)oxy)propyl)carbamate], the “% of Payload Release” value was “+ (‘+’ indicates 5-25% release)”. In the case of `CCc1c2c(nc3ccc(OCCCNC(=O)OCc4ccc(SSC(C)(C)CNC(=O)CCOCCOCCOCCOCCOCCOCCOCCOCCOCCN=[N+]=[N-])cc4)cc13)-c1cc3c(c(=O)n1C2)COC(=O)[C@]3(O)CC` [Example 59, 4-((1-azido-33-methyl-30-oxo-3,6,9,12,15,18,21,24,27-nonaoxa-31-azatetratriacontan-33-yl)disulfanyl)benzyl (S)-(3-((4,11-diethyl-4-hydroxy-3,14-dioxo-3,4,12,14-tetrahydro-1H-pyrano[3′,4′:6,7]indolizino[1,2-b]quinolin-9-yl)oxy)propyl)carbamate] it was “+++ (‘+++’ indicates 51-75% release)”; in that of `CCc1c2c(nc3ccc(OCc4c(F)cc(NC(=O)[C@H](CCCNC(N)=O)NC(=O)[C@@H](NC(=O)CCOCCOCCOCCOCCOCCOCCOCCOCCOCCN=[N+]=[N-])C(C)C)cc4F)cc13)-c1cc3c(c(=O)n1C2)COC(=O)[C@]3(O)CC` [Example 21, 1-Azido-N-((S)-1-(((S)-1-((4-((((S)-4,11-diethyl-4-hydroxy-3,14-dioxo-3,4,12,14-tetrahydro-1H-pyrano[3′,4′:6,7]indolizino[1,2-b]quinolin-9-yl)oxy)methyl)-3,5-difluorophenyl)amino)-1-oxo-5-ureidopentan-2-yl)amino)-3-methyl-1-oxobutan-2-yl)-3,6,9,12,15,18,21,24,27-nonaoxatriacontan-30-amide], “+ (‘+’ indicates 5-25% release)”; in that of `CCc1c2c(nc3ccc(OC(C(=O)N(C)C)c4ccc(NC(=O)[C@H](CCCNC(N)=O)NC(=O)[C@@H](NC(=O)CCOCCOCCOCCOCCOCCOCCOCCOCCOCCN=[N+]=[N-])C(C)C)cc4)cc13)-c1cc3c(c(=O)n1C2)COC(=O)[C@]3(O)CC` (stereo partly drawn) [Example 19, 1-azido-N-((2S)-1-(((2S)-1-((4-(1-(((S)-4,11-diethyl-4-hydroxy-3,14-dioxo-3,4,12,14-tetrahydro-1H-pyrano[3′,4′:6,7]indolizino[1,2-b]quinolin-9-yl)oxy)-2-(dimethylamino)-2-oxoethyl)phenyl)amino)-1-oxo-5-ureidopentan-2-yl)amino)-3-methyl-1-oxobutan-2-yl)-3,6,9,12,15,18,21,24,27-nonaoxatriacontan-30-amide], “+ (‘+’ indicates 5-25% release)”.
